Data reported in the supplement of paper PMC9112550, “Optimization of the antimicrobial peptide Bac7 by deep mutational scanning” (BMC Biology, 2022).

These sequences were tested on Escherichia coli TOP10 (assay: shrunken log2 fold change of peptide-encoding DNA abundance (4.5 h post-induction vs induction); higher = less antimicrobial activity (less host growth inhibition)). Settings: time post-induction: 4.5 h; library: site-saturation at positions 5, 18, 19, 20.
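Further: peptides expressed intracellularly from a pBAD plasmid library in pooled LB shake-flask culture, induced with 0.3% L-arabinose, DNA abundance read by NGS, three biological replicates, DESeq2 with apeglm shrinkage.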

Sequence	shrunken log2 fold change
RRIRWRPPRLPRPRPRPECGPRP	1.37
RRIRWRPPRLPRPRPRPECSPRP	0.966
RRIRWRPPRLPRPRPRPECTPRP	0.255
RRIRWRPPRLPRPRPRPEDGPRP	0.173
RRIRWRPPRLPRPRPRPEFMPRP	0.635
RRIRWRPPRLPRPRPRPEGAPRP	1.13
RRIRWRPPRLPRPRPRPEGDPRP	0.166
RRIRWRPPRLPRPRPRPEGLPRP	0.267
RRIRWRPPRLPRPRPRPEGMPRP	0.999
RRIRWRPPRLPRPRPRPEGVPRP	0.601
RRIRWRPPRLPRPRPRPEIGPRP	0.0225
RRIRWRPPRLPRPRPRPEIMPRP	1.1
RRIRWRPPRLPRPRPRPEKRPRP	0.028
RRIRWRPPRLPRPRPRPEMIPRP	0.0062
RRIRWRPPRLPRPRPRPEMQPRP	1.12
RRIRWRPPRLPRPRPRPEMWPRP	1.05
RRIRWRPPRLPRPRPRPENSPRP	0.0193
RRIRWRPPRLPRPRPRPEQKPRP	0.0146
RRIRWRPPRLPRPRPRPERTPRP	1.08
RRIRWRPPRLPRPRPRPESEPRP	0.916
RRIRWRPPRLPRPRPRPESVPRP	0.192
RRIRWRPPRLPRPRPRPESYPRP	-0.134
RRIRWRPPRLPRPRPRPEVAPRP	1.25
RRIRWRPPRLPRPRPRPEVDPRP	1.87
RRIRWRPPRLPRPRPRPEVMPRP	0.00589

Sequence	shrunken log2 fold change
RRIRWRPPRLPRPRPRPEVQPRP	0.69
RRIRWRPPRLPRPRPRPEWQPRP	0.0276
RRIRWRPPRLPRPRPRPEYVPRP	0.214
RRIRWRPPRLPRPRPRPEYWPRP	0.388
RRIRWRPPRLPRPRPRPFAEPRP	0.801
RRIRWRPPRLPRPRPRPFCAPRP	0.23
RRIRWRPPRLPRPRPRPFCRPRP	0.0689
RRIRWRPPRLPRPRPRPFCYPRP	-0.418
RRIRWRPPRLPRPRPRPFEEPRP	0.43
RRIRWRPPRLPRPRPRPFEFPRP	-0.182
RRIRWRPPRLPRPRPRPFELPRP	-0.285
RRIRWRPPRLPRPRPRPFFKPRP	-0.0879
RRIRWRPPRLPRPRPRPFGHPRP	-0.102
RRIRWRPPRLPRPRPRPFGLPRP	0.0452
RRIRWRPPRLPRPRPRPFHGPRP	-0.229
RRIRWRPPRLPRPRPRPFHMPRP	-0.138
RRIRWRPPRLPRPRPRPFINPRP	-0.635
RRIRWRPPRLPRPRPRPFIYPRP	-0.467
RRIRWRPPRLPRPRPRPFKAPRP	0.0343
RRIRWRPPRLPRPRPRPFMFPRP	-0.0915
RRIRWRPPRLPRPRPRPFMKPRP	-0.128
RRIRWRPPRLPRPRPRPFMNPRP	-0.11
RRIRWRPPRLPRPRPRPFNFPRP	-0.272
RRIRWRPPRLPRPRPRPFNNPRP	-0.494
RRIRWRPPRLPRPRPRPFNPPRP	-0.389

Sequence	shrunken log2 fold change
RRIRWRPPRLPRPRPRPFPKPRP	0.0146
RRIRWRPPRLPRPRPRPFRQPRP	-0.0956
RRIRWRPPRLPRPRPRPFSPPRP	0.0392
RRIRWRPPRLPRPRPRPFSWPRP	0.0632
RRIRWRPPRLPRPRPRPFTGPRP	0.0256
RRIRWRPPRLPRPRPRPFTLPRP	3.06
RRIRWRPPRLPRPRPRPFVNPRP	-0.483
RRIRWRPPRLPRPRPRPFWHPRP	-0.0195
RRIRWRPPRLPRPRPRPGAAPRP	1.06
RRIRWRPPRLPRPRPRPGCKPRP	0.123
RRIRWRPPRLPRPRPRPGCRPRP	0.417
RRIRWRPPRLPRPRPRPGDNPRP	0.106
RRIRWRPPRLPRPRPRPGDTPRP	-0.0199
RRIRWRPPRLPRPRPRPGFTPRP	0.132
RRIRWRPPRLPRPRPRPGIEPRP	0.281
RRIRWRPPRLPRPRPRPGIKPRP	-0.168
RRIRWRPPRLPRPRPRPGIMPRP	0.238
RRIRWRPPRLPRPRPRPGKCPRP	0.0425
RRIRWRPPRLPRPRPRPGKRPRP	0.37
RRIRWRPPRLPRPRPRPGKYPRP	-0.227
RRIRWRPPRLPRPRPRPGMFPRP	0.281
RRIRWRPPRLPRPRPRPGNAPRP	0.146
RRIRWRPPRLPRPRPRPGNLPRP	-0.00261
RRIRWRPPRLPRPRPRPGNNPRP	0.1
RRIRWRPPRLPRPRPRPGQLPRP	-0.0402

Sequence	shrunken log2 fold change
RRIRWRPPRLPRPRPRPGRAPRP	0.71
RRIRWRPPRLPRPRPRPGRWPRP	0.742
RRIRWRPPRLPRPRPRPGSHPRP	0.0507
RRIRWRPPRLPRPRPRPGSKPRP	0.0611
RRIRWRPPRLPRPRPRPGTHPRP	0.158
RRIRWRPPRLPRPRPRPGTIPRP	-0.283
RRIRWRPPRLPRPRPRPGVFPRP	0.224
RRIRWRPPRLPRPRPRPGYDPRP	-0.0098
RRIRWRPPRLPRPRPRPHAMPRP	0.00797
RRIRWRPPRLPRPRPRPHCDPRP	0.135
RRIRWRPPRLPRPRPRPHDPPRP	0.23
RRIRWRPPRLPRPRPRPHGNPRP	0.132
RRIRWRPPRLPRPRPRPHHCPRP	-0.239
RRIRWRPPRLPRPRPRPHHIPRP	-0.612
RRIRWRPPRLPRPRPRPHHMPRP	-0.592
RRIRWRPPRLPRPRPRPHHPPRP	0.0415
RRIRWRPPRLPRPRPRPHHVPRP	-0.108
RRIRWRPPRLPRPRPRPHIHPRP	-0.359
RRIRWRPPRLPRPRPRPHKTPRP	0.175
RRIRWRPPRLPRPRPRPHMRPRP	0.494
RRIRWRPPRLPRPRPRPHNFPRP	-0.0122
RRIRWRPPRLPRPRPRPHNNPRP	-0.749
RRIRWRPPRLPRPRPRPHNQPRP	-0.445
RRIRWRPPRLPRPRPRPHNRPRP	-0.205
RRIRWRPPRLPRPRPRPHPDPRP	0.0175

Sequence	shrunken log2 fold change
RRIRWRPPRLPRPRPRPHRAPRP	-0.0058
RRIRWRPPRLPRPRPRPHRLPRP	-0.0123
RRIRWRPPRLPRPRPRPHRNPRP	-0.255
RRIRWRPPRLPRPRPRPHSRPRP	0.194
RRIRWRPPRLPRPRPRPHSTPRP	-0.209
RRIRWRPPRLPRPRPRPHTEPRP	-0.0123
RRIRWRPPRLPRPRPRPHVAPRP	0.181
RRIRWRPPRLPRPRPRPHVIPRP	-0.13
RRIRWRPPRLPRPRPRPHWEPRP	0.323
RRIRWRPPRLPRPRPRPHWTPRP	-0.158
RRIRWRPPRLPRPRPRPHYKPRP	-0.631
RRIRWRPPRLPRPRPRPHYMPRP	-0.825
RRIRWRPPRLPRPRPRPIAKPRP	-0.283
RRIRWRPPRLPRPRPRPIAPPRP	0.45
RRIRWRPPRLPRPRPRPIATPRP	0.435
RRIRWRPPRLPRPRPRPIFEPRP	0.308
RRIRWRPPRLPRPRPRPIFMPRP	-0.0259
RRIRWRPPRLPRPRPRPIIAPRP	0.00853
RRIRWRPPRLPRPRPRPILRPRP	-0.0505
RRIRWRPPRLPRPRPRPIMDPRP	-0.195
RRIRWRPPRLPRPRPRPIMPPRP	-0.0977
RRIRWRPPRLPRPRPRPIMRPRP	0.0401
RRIRWRPPRLPRPRPRPIPAPRP	0.523
RRIRWRPPRLPRPRPRPIQMPRP	-0.0543
RRIRWRPPRLPRPRPRPIQSPRP	0.245

Sequence	shrunken log2 fold change
RRIRWRPPRLPRPRPRPIQWPRP	0.25
RRIRWRPPRLPRPRPRPISLPRP	-0.161
RRIRWRPPRLPRPRPRPISTPRP	-0.399
RRIRWRPPRLPRPRPRPITFPRP	-0.232
RRIRWRPPRLPRPRPRPITRPRP	-0.0637
RRIRWRPPRLPRPRPRPIVMPRP	-0.154
RRIRWRPPRLPRPRPRPIVVPRP	-0.0496
RRIRWRPPRLPRPRPRPIWGPRP	-0.01
RRIRWRPPRLPRPRPRPIWHPRP	0.126
RRIRWRPPRLPRPRPRPIWRPRP	0.628
RRIRWRPPRLPRPRPRPIYGPRP	-0.0358
RRIRWRPPRLPRPRPRPIYYPRP	-0.488
RRIRWRPPRLPRPRPRPKEPPRP	0.117
RRIRWRPPRLPRPRPRPKFPPRP	0.944
RRIRWRPPRLPRPRPRPKGQPRP	-0.0148
RRIRWRPPRLPRPRPRPKISPRP	0.177
RRIRWRPPRLPRPRPRPKKFPRP	0.0141
RRIRWRPPRLPRPRPRPKLMPRP	0.31
RRIRWRPPRLPRPRPRPKMVPRP	0.295
RRIRWRPPRLPRPRPRPKPGPRP	0.34
RRIRWRPPRLPRPRPRPKPKPRP	-0.0893
RRIRWRPPRLPRPRPRPKQCPRP	0.31
RRIRWRPPRLPRPRPRPKQMPRP	0.113
RRIRWRPPRLPRPRPRPKRIPRP	0.364
RRIRWRPPRLPRPRPRPKRKPRP	0.502
